Measured values published in US20220324970A1 (Janssen / Centocor, published 2022).
Where two headings read alike, the source gives them in different places.

T1: hpIgR_D2-D3
T1 construct: HIS-tagged construct from HEK293 cells; also called human pIgR extracellular domain 2-domain 3 (D2-D3); hD2-D3
T1 HIS-tagged domain construct: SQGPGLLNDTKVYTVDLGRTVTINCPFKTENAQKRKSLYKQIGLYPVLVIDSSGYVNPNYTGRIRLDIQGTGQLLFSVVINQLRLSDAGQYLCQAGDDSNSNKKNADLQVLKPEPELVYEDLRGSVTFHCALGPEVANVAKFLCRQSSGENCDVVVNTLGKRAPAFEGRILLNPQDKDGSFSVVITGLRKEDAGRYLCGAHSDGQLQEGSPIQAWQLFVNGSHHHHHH

T2: hpIgR_D3
T2 construct: HIS-tagged construct from HEK293 cells; also called human pIgR extracellular domain 3 (D3); hD3
T2 HIS-tagged domain construct: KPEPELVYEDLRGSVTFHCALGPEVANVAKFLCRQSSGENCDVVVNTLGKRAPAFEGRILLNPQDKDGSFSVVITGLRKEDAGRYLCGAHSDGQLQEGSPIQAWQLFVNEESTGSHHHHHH

T3: human pIgR extracellular domain 4-domain 5 (D4-D5) (human, UniProt P01833 350-565)
T3 construct: HIS-tagged construct made in HEK293 cells; also called hpIgR domains 4-5
T3 chain: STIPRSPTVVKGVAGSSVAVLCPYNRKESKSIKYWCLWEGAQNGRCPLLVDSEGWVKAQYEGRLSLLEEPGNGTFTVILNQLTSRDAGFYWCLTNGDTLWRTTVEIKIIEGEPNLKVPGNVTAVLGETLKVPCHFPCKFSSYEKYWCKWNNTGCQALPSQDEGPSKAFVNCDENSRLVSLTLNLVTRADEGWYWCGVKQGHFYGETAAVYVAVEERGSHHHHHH


Legend:
[1] = molecular target: T4, human pIgR, full-length, on cells (human, UniProt P01833 19-764); experiment: cell-based or functional assay
[2] = molecular target: T4, human pIgR, full-length, on cells; experiment: cell-based or functional assay; remark: listed apart in the source
[3] = molecular target: T4, human pIgR, full-length, on cells; experiment: cell-based or functional assay; remark: listed apart in the source
[4] = molecular target: T4, human pIgR, full-length, on cells; experiment: flow cytometry on MDCK-hpIgR cells
[5] = molecular target: T5, human pIgR extracellular domain (ECD) (human, UniProt P01833 19-638); experiment: BLI; summary table, repeats Table 1
T5 construct: also called hpIgR ECD

[6] = molecular target: T5, human pIgR extracellular domain (ECD); experiment: BLI; summary table, repeats Table 1; remark: listed apart in the source
[7] = molecular target: T5, human pIgR extracellular domain (ECD); experiment: BLI (Octet), VHH-mono-Fc and hpIgR ectodomain
[8] = molecular target: T5, human pIgR extracellular domain (ECD); experiment: ECL (MSD), hpIgR-ECD coated, anti-Fc detection
Description: (§1) To check whether VHH recognizes a buried epitope on pIgR, EC₅₀ values were measured for VHH-mono-Fc molecules binding to hpIgR-ECD protein by electrochemiluminescence using two different detection antibodies, an anti-Fc antibody and an anti-VHH antibody. pIgR ECD (10 μg/ml in PBS) was coated on high-bind MSD plates for 2 hours at RT with 1000 rpm, incubated with blocking buffer for 1 hour at RT, incubated with VHH-mono-Fc molecules (increasing concentrations in PBS) for 2 hours at RT with 1000 rpm, washed 3× with PBT, incubated with ruthenylated secondary antibody (2 μg/ml in PBS) for 1 hour at RT with 1000 rpm, washed 3× with PBT and read plates in 40 ul reading buffer using the MSD imager. EC50 was calculated by fitting log VHH concentration versus log ECLU in Prism (Graphpad). The increase in EC₅₀ (>50-fold) due to anti-VHH detection was used as a measure to determine whether VHH recognized buried epitope on pIgR.

[9] = molecular target: T5, human pIgR extracellular domain (ECD); experiment: ECL (MSD), hpIgR-ECD coated, anti-VHH detection
[10] = molecular target: T5, human pIgR extracellular domain (ECD); experiment: ECL (MSD), anti-VHH detection against anti-Fc detection
Description: as §1

hpIgR_D2-D3 [11] = molecular target: T1, hpIgR_D2-D3; experiment: BLI (Octet RED384), 1:1 fit, 25 C, PBS
Description: (§2) Bio-layer Interferometry was performed as follows. […] Data were collected with Octet Data Acquisition version 7.1.0.87 (ForteBio) and analyzed using Octet Data Analysis version 7.1 (ForteBio). To measure binding kinetics between VHH-mono-Fc molecules and HIS-tagged pIgR proteins, VHH-mono-Fc was immobilized on amine-reactive generation-2 (ARG2) biosensors according to manufacturer's instructions and increasing concentrations of pIgR proteins were exposed to sensor-immobilized VHH. In some cases, HIS-tagged pIgR proteins were immobilized on anti-HIS biosensors and exposed to increasing concentrations of VHH-mono-Fc molecules. Association and dissociation rates were measured by the shift in wavelength (nm). […] All reactions were performed at 25° C. in PBS.

[12] = molecular target: T5, human pIgR extracellular domain (ECD); experiment: BLI (Octet RED384), 1:1 fit, 25 C, PBS
Description: as §2

[13] = molecular target: T6, human pIgR extracellular domain 1-domain 2 (D1-D2) (human, UniProt P01833 19-240); experiment: BLI (Octet RED384), 1:1 fit, 25 C, PBS
T6 construct: HIS-tagged construct made in HEK293 cells
Description: as §2

[14] = molecular target: T7, human pIgR extracellular domain 2 (D2) (human, UniProt P01833 128-242); experiment: BLI (Octet RED384), 1:1 fit, 25 C, PBS
T7 construct: HIS-tagged construct made in HEK293 cells; also called hpIgR domain 2
Description: as §2

[15] = molecular target: T4, human pIgR, full-length, on cells; experiment: flow cytometry on MDCK-hpIgR cells; summary table, repeats Table 1
[16] = molecular target: T4, human pIgR, full-length, on cells; experiment: as above; remark: listed apart in the source
Description: Flow Cytometry was performed as follows. To test whether VHH-mono-Fc molecules recognize cell-surface hpIgR, Madin-Darby canine kidney (MDCK) cells engineered to express full-length hpIgR were used. Cells were cultured in Dulbecco's modified Eagle's medium containing 10% fetal calf serum at 37° C. with 5% CO₂. Cells were split into equal fractions (≈70,000 cells) and incubated with increasing concentrations of VHH-mono-Fc molecules for 30 min at 4 C. […] Cells were washed twice with cold staining buffer, resuspended in running buffer and analyzed with an iQue Screener (IntelliCyt Corporation). Binding was assessed by RL1 (A647) Geomeans from the live cell population and EC50 was calculated by fitting log VHH concentration versus MFI in Prism (Graphpad).

hpIgR_D2-D3 [17] = molecular target: T1, hpIgR_D2-D3; experiment: BLI (Octet RED384), 1:1 fit, 25 C, PBS; column kdis
[18] = molecular target: T5, human pIgR extracellular domain (ECD); experiment: as above
[19] = molecular target: T6, human pIgR extracellular domain …; experiment: as above
[20] = molecular target: T7, human pIgR extracellular domain 2 (D2); experiment: as above
hpIgR_D3 = molecular target: T2, hpIgR_D3; experiment: ECL (MSD) heat map, HIS-tagged construct captured via anti-HIS, anti-human-Fc detection;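 further: VHH-mono-Fc molecules tested at 100 µg/ml for 2 h on captured His-tagged pIgR constructs (10 µg/ml), read-out as electrochemiluminescence units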
[21] = molecular target: T8, human pIgR extracellular domain 1 (D1) (human, UniProt P01833 19-127); experiment: as above
T8 construct: HIS-tagged construct made in HEK293 cells; also called hpIgR domain-1

[22] = molecular target: T9, human pIgR extracellular domain 5 (D5) (human, UniProt P01833 460-565); experiment: as above
T9 construct: HIS-tagged construct made in HEK293 cells; also called hpIgR domain 5

[23] = molecular target: T3, human pIgR extracellular domain …; experiment: as above
[24] = molecular target: T5, human pIgR extracellular domain (ECD); experiment: BLI (Octet RED384), 1:1 fit, 25 C, PBS; remark: listed apart in the source
[25] = molecular target: T3, human pIgR extracellular domain …; experiment: BLI (Octet RED384), 1:1 fit, 25 C, PBS
[26] = molecular target: T5, human pIgR extracellular domain (ECD); experiment: BLI (Octet RED384), 1:1 fit, 25 C, PBS; column kdis; remark: listed apart in the source
[27] = molecular target: T3, human pIgR extracellular domain …; experiment: as above
[28] = molecular target: T7, human pIgR extracellular domain 2 (D2); experiment: ECL (MSD) heat map, HIS-tagged construct captured via anti-HIS, anti-human-Fc detection;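 further: VHH-mono-Fc molecules tested at 100 µg/ml for 2 h on captured His-tagged pIgR constructs (10 µg/ml), read-out as electrochemiluminescence units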
hpIgR_D2-D3 [29] = molecular target: T1, hpIgR_D2-D3; experiment: as above
[30] = molecular target: T6, human pIgR extracellular domain …; experiment: as above

T5 sequence (P01833 other isoform, or with tags, fused parts or gaps): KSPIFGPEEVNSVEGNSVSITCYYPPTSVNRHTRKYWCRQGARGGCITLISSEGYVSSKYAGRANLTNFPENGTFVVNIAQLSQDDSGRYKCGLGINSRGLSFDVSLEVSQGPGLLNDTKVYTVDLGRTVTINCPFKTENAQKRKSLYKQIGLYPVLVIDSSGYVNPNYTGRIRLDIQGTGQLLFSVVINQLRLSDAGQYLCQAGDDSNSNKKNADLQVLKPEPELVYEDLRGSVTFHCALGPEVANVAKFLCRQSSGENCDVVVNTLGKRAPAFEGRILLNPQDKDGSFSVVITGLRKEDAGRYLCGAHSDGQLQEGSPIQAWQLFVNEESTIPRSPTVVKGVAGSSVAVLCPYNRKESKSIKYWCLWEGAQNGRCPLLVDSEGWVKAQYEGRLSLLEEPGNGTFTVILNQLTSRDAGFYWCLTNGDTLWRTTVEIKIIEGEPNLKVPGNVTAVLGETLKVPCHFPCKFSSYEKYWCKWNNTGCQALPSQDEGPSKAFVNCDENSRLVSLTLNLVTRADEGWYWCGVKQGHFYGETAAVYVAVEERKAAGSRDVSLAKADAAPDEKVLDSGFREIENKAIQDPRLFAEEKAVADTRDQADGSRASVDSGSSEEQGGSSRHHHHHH
T4 sequence (P01833 19-764): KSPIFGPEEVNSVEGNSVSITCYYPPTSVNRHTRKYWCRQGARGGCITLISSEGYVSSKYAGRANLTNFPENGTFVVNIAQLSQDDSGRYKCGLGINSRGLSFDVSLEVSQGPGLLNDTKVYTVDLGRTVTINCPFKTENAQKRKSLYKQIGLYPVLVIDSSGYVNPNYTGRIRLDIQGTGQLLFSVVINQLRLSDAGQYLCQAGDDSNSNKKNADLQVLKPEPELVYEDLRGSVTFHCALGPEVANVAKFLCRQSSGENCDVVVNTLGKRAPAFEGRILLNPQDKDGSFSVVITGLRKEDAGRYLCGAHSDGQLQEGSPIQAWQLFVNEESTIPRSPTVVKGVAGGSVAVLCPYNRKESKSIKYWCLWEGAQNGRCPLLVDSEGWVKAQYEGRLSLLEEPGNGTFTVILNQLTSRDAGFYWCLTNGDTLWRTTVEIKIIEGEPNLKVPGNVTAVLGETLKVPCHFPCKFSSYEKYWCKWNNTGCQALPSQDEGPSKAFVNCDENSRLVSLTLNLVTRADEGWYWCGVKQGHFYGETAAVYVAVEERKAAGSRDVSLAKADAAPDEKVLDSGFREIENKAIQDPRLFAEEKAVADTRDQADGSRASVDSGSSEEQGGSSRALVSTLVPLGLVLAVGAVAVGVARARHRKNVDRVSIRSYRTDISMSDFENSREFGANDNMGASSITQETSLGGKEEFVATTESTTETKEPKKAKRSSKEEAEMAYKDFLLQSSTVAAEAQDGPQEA
T6 sequence (P01833 other isoform, or with tags, fused parts or gaps limits assumed): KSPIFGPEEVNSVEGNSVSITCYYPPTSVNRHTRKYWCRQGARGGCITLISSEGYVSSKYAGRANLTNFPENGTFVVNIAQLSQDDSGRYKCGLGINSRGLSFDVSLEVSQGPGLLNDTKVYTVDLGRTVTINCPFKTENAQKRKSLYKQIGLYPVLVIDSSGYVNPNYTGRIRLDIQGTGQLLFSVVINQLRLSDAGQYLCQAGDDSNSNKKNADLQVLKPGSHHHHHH
T8 sequence (P01833 other isoform, or with tags, fused parts or gaps limits assumed): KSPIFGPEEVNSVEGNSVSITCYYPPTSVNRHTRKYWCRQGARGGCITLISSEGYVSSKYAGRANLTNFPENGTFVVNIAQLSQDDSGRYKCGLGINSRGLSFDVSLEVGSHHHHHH

increase in their apical concentration relative to control VHH (MDCK-hpIgR monolayers) [1]	Transcytosis (Fold Incr.) [2]	For. Trans. (Fold Incr.) [3]	Rev. Trans (Fold Incr.) [3]	EC50 [4]	Kd [5]	Kd [6]	Kd [7]	EC50 [8]	EC50 [9]	Fold change in EC50 [10]	EC50 [15]	EC50 [16]	Binder	binding result (hpIgR_D3)	binding result [21]	binding result [22]	further results
> 10 fold	12.6 fold	15.1 fold	8 fold	32.9 nM	22 nM	22 nM	22 nM	1.1 nM	206 nM	180 fold	32.9 nM	32.9 nM	VHH4-linker-mono-Fc protein (Fc fusion, also called VHH4-mono-Fc; hpIgR_073) EVQVVESGGGLVQAGGSLRLSCAVSGTSVSSNAMGWYRQAPGKQREWVGFIDRIATTTIATSVKGRFAITRDNAKNTVYLQMSGLKPEDTAVYYCNHPLTARWGQGTQVTVSSEPKTPKPQPQPQLQPQPNPTTESKSPKSPAPELLGGPSVFLFPPKPKDTLMISRTPEVTCVVVDVSHEDPEVKFNWYVDGVEVHNAKTKPREEQYNSTYRVVSVLTVLHQDWLNGKEYKCKVSNKALPAPIEKTISKAKGQPREPQVYTKPPSREEMTKNQVSLSCLVKGFYPSDIAVEWESNGQPENNYKTTVPVLDSDGSFRLASYLTVDKSRWQQGNVFSCSVMHEALHNHYTQKSLSLSPGK	no binding (tested: 100 ug/ml (single concentration))	no binding (tested: 100 ug/ml (single concentration))	no binding (tested: 100 ug/ml (single concentration))	Kd (hpIgR_D2-D3 [11]): 86.1 nM; kon (hpIgR_D2-D3 [11]): 14000 M⁻¹ s⁻¹; Kd [12]: 76 nM; kon [12]: 14400 M⁻¹ s⁻¹; Kd [13]: 77.3 nM; kon [13]: 19200 M⁻¹ s⁻¹; Kd [14]: 83.8 nM; kon [14]: 19100 M⁻¹ s⁻¹; koff (hpIgR_D2-D3 [17]): 0.0012 s⁻¹; koff [18]: 0.0011 s⁻¹; koff [19]: 0.00149 s⁻¹; koff [20]: 0.0016 s⁻¹; binding result [23]: no binding (tested: 100 ug/ml (single concentration))
> 10 fold	22.4 fold	24.2 fold	6.6 fold	1.5 nM	4 nM	4 nM	4 nM	0.4 nM	0.8 nM	1.8 fold	1.5 nM	1.5 nM	VHH9-linker-mono-Fc protein (Fc fusion, made in CHO cells; also called VHH9-mono-Fc; hpIgR_221) QVQLVESGGGLVQAGGSLRLSCAVSGRTFSTYRMGWFRQAPGKERSFVAAISWSGGSTTYADPVKGRFTISRDNAKNTVYLRMNSLKPEDTAVYYCNDQRGYWGQGTLVTVSSEPKTPKPQPQPQLQPQPNPTTESKSPKSPAPELLGGPSVFLFPPKPKDTLMISRTPEVTCVVVDVSHEDPEVKFNWYVDGVEVHNAKTKPREEQYNSTYRVVSVLTVLHQDWLNGKEYKCKVSNKALPAPIEKTISKAKGQPREPQVYTKPPSREEMTKNQVSLSCLVKGFYPSDIAVEWESNGQPENNYKTTVPVLDSDGSFRLASYLTVDKSRWQQGNVFSCSVMHEALHNHYTQKSLSLSPGK	no binding (tested: 100 ug/ml (single concentration))	no binding (tested: 100 ug/ml (single concentration))	no binding (tested: 100 ug/ml (single concentration))	Kd [24]: 19.6 nM; kon [24]: 79300 M⁻¹ s⁻¹; Kd [25]: 12.6 nM; kon [25]: 133000 M⁻¹ s⁻¹; koff [26]: 0.00156 s⁻¹; koff [27]: 0.00169 s⁻¹; binding result [28]: no binding (tested: 100 ug/ml (single concentration)); binding result (hpIgR_D2-D3 [29]): no binding (tested: 100 ug/ml (single concentration)); binding result [30]: no binding (tested: 100 ug/ml (single concentration))
